Target: T1, dCas13a (LbuCas13a R1079A/K1080A) (Leptotrichia buccalis, UniProt C7NBY4 1-1159, R1079A;K1080A)
T1 sequence: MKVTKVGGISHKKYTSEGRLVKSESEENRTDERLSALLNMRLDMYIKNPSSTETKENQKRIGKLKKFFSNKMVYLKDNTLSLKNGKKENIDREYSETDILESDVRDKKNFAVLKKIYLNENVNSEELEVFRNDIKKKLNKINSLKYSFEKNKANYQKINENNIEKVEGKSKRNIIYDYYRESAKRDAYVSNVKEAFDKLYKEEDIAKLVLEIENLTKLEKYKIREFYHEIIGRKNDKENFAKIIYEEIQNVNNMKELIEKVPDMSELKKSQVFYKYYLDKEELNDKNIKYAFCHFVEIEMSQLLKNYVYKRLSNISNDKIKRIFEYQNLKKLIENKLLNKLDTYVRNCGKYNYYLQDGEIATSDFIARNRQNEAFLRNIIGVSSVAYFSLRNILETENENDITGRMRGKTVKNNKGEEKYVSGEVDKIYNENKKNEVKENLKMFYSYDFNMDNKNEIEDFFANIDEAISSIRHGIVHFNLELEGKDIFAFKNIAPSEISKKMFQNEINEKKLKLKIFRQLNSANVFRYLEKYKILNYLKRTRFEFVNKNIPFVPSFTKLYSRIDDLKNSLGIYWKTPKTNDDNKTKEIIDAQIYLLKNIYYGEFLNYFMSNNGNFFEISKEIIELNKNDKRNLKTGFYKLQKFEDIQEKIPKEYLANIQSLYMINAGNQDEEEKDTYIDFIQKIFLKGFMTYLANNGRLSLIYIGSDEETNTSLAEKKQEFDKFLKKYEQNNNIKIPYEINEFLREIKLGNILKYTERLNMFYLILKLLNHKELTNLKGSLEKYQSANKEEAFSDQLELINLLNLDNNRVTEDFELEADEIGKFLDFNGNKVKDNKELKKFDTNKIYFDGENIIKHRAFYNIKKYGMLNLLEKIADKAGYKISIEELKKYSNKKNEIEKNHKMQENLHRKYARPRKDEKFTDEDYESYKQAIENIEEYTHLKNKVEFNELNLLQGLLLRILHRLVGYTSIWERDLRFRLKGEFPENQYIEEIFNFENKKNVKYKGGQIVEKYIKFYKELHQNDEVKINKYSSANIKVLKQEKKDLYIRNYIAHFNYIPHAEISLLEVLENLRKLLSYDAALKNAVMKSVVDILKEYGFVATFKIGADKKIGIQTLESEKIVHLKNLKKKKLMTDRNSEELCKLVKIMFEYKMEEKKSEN
Assay: EMSA; no target RNA; dCas13a EMSA: 20 mM HEPES pH 6.8 (25 C), 50 mM KCl, 10 ug/mL BSA, 100 ug/mL yeast tRNA, 0.01% Igepal CA-630, 5% glycerol; 10 min at 37 C; 6% native PAGE at 4 C
Conditions: protein: recombinant; tags: His6-MBP removed with TEV protease; label: 5'-Cy3; single strand, repeat hairpin

B1: crRNA13a-Cy3 (unmasked) (structured_RNA)
RNA: GAUUUAGACUACCCCAAAAACGAAGGGGACUAAAACUAGAUUGCUGUUCUACCAAGUAAUCCAU
binding result: binds

From PMC6941951, “Conditional control of RNA-guided nucleic acid cleavage and gene editing”
